Molecular target: G6PD Meyer (Arg219Gly) (human) (UniProt P11413)
Test: SEC; Superdex 200 Increase 10/300, 100 µg recombinant protein loaded, 50 mM Tris-HCl pH 7.5, 150 mM NaCl, 0.5 ml/min; column calibrated with Gel Filtration Standard (Biorad)

## G6PD Meyer (Arg219Gly) (from UniProt P11413-3 1-545) (enzyme)
  stoichiometry N: 2

Reference: paper PMC10709299
